“And” between values parts separate entries of the source, which are not always exact repeats. Equal entries are not always repeated.
What was measured:
Test in all cases: SPR
[1] = target: T1, BB_2cx5_001 (backbone grafting 2F5 epitope scaffold on parent PDB 2cx5) (designed scaffold on Thermus …)
T1 chain: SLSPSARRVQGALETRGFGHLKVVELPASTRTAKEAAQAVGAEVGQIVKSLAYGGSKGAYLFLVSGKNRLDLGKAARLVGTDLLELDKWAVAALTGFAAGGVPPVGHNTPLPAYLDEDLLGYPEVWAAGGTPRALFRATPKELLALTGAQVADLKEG

[2] = target: T2, BB_1wnu_001 (backbone grafting 2F5 epitope scaffold on parent PDB 1wnu) (designed scaffold on Pyrococcus …)
T2 chain: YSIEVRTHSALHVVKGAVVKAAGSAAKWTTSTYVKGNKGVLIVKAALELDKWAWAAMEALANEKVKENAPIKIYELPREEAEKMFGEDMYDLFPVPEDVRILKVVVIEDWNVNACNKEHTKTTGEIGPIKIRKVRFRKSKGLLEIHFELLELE

[3] = target: T3, SC_1wnu (side-chain grafting 2F5 epitope scaffold on parent PDB 1wnu) (designed scaffold on Pyrococcus …)
T3 chain: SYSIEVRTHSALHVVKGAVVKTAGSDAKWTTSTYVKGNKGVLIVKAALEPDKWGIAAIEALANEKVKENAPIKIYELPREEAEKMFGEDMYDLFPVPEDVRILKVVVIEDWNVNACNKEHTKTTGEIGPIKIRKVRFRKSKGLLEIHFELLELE

[4] = target: T4, SC_2cx5 (side-chain grafting 2F5 epitope scaffold on parent PDB 2cx5) (designed scaffold on Thermus …)
T4 chain: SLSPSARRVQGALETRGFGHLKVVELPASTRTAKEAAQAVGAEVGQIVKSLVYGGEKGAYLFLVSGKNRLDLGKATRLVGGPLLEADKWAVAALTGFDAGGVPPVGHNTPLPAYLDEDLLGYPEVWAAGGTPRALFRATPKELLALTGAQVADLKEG

B1: 2F5 monoclonal antibody (2F5 IgG) (antibody, V domains shown)
VH: RITLKESGPPLVKPTQTLTLTCSFSGFSLSDFGVGVGWIRQPPGKALEWLAIIYSDDDKRYSPSLNTRLTITKDTSKNQVVLVMTRVSPVDTATYFCAHRRGPTTLFGVPIARGPVNAMDVWGQGITVTISS
VL: ALQLTQSPSSLSASVGDRITITCRASQGVTSALAWYRQKPGSPPQLLIYDASSLESGVPSRFSGSGSGTEFTLTISTLRPEDFATYYCQQLHFYPHTFGGGTRVDVR
Q: Which Kd [1] does the source give for B1 here?
A: 1.4 nM

Q: What about the Kd [2] of the same binder?
A: 8.3 nM and 8.7 nM

Q: And the Kd [3]?
A: 91 nM

Q: And the “Kd kinetic, step 1 (conformational change model)” value [3]?
A: 0.000109 mM

Q: What about the “Kd kinetic, step 2 (conformational change model)” value [3] of the same binder?
A: 3800 mM

Q: And the Kd [4]?
A: 40.2 nM and 38.3 nM

From article PMC7105911 (Journal of Molecular Biology, 2011)
